B1: E. coli histidine phosphocarrier protein HPr (dephosphorylated, untagged) (natural protein)
chain: not shown
notes: Histidine phosphocarrier protein HPr of E. coli, 9 kDa; Untagged; probably the whole protein (9 kDa); also called ecHPr; source: E. coli, overexpressed, purified (MonoQ, Superdex 75); for the complex overexpressed in E. coli GI698 harboring pSP100 and co-purified with MtlR
B2: E. coli MtlR fused with His6-tag (ecHisMtlR), wild type (natural protein)
chain: MVDQAQDTLRPNNRLSDMQATMEQTQAFENRVLERLNAGKTVRSFLITAVELLTEAVNLLVLQVFRKDDYAVKYAVEPLLDGDGPLGDLSVRLKLIYGLGVINRQEYEDAELLMALREELNHDGNEYAFTDDEILGPFGELHCVAALPPPPQFEPADSSLYAMQIQRYQQAVRSTMVLSLTELISKISLKKAFQK
notes: Mannitol operon repressor MtlR of E. coli (cloned from genomic DNA of MG1655, K-12); ecHisMtlR is about 23 kDa with the tag; probably the whole protein (about 23 kDa with tag); Homodimer by SEC-MALS; also called wild-type His-MtlR; ecMtlR
B3: E. coli HPr labelled with the dye NT-647 (natural protein)
chain: not shown
modifications: dye NT-647 coupled by N-hydroxysuccinimide (NHS) to lysine residues
notes: Histidine phosphocarrier protein HPr of E. coli, 9 kDa; Same protein as m2, fluorescently labelled for microscale thermophoresis; also called labeled HPr; source: E. coli, overexpressed, purified (MonoQ, Superdex 75), then labelled with NT-647-NHS

Positions count from the first letter of the chain named.

Data set [1] deals with B2. The experiment in a line: SEC; gel filtration chromatography of purified MtlR and HPr from E. coli and V. vulnificus (Supplementary Fig. 4). The note with it: both partners purified. (In general: Size exclusion chromatography separates by hydrodynamic size, large species first.)
A further data set has as its target T1, His-MtlR(L112W) (E. coli, UniProt P0AF10 1-195, Leu112 was mutated to Trp).
T1 construct: Mannitol operon repressor MtlR of E. coli, made by site-directed mutagenesis of pET-HisMtlR; also called Leu112 mutated to Trp
T1 sequence: B2 chain with L112W
In words: pull-down; His-MtlR (200 μg) mixed with HPr (200 μg) in 20 mM Tris-HCl pH 7.5, 50 mM NaCl, 2 mM β-mercaptoethanol, 5% glycerol; Talon metal affinity chromatography, 3 washes with 10 mM imidazole, elution with 150 mM imidazole; SDS-PAGE, Coomassie. The conditions noted are these: both partners purified.

Data set [2] addresses T2, His-MtlR(E140S) (E. coli, UniProt P0AF10 1-195, E140S).
T2 construct: Mannitol operon repressor MtlR of E. coli, made by site-directed mutagenesis of pET-HisMtlR; also called E140S single mutant
T2 sequence: B2 chain with E140S
The description is as above. The conditions noted are these: both partners purified.

The target of the next data set is T3, His-MtlR(A115W) (E. coli, UniProt P0AF10 1-195, A115W).
T3 construct: Mannitol operon repressor MtlR of E. coli, made by site-directed mutagenesis of pET-HisMtlR; also called A115W mutant of His-tagged ecMtlR
T3 sequence: B2 chain with A115W
The description is as above. The note with it: both partners purified.

Data set [3] addresses T4, His-MtlR(E108S) (E. coli, UniProt P0AF10 1-195, E108S).
T4 construct: Mannitol operon repressor MtlR of E. coli, made by site-directed mutagenesis of pET-HisMtlR; also called E108S single mutant
T4 sequence: B2 chain with E108S
In words: pull-down; His-MtlR (200 μg) mixed with 20 μl of EI-overproducing cell lysate, 200 μg of HPr, 2 mM MgCl2 and 50 μl of Talon resin, in the absence or presence of 2 mM PEP; SDS-PAGE, Coomassie. The note with it: both partners purified.

Data set [4] deals with the molecule itself. In words: SEC-MALS; Superdex 200 increase 5/150 GL, binding buffer as mobile phase, 0.2 ml/min; HisMtlR alone (40 μg) and in complex with HPr (60 μg); concentration by refractive index.
Data set [5] addresses T4, His-MtlR(E108S). The experiment in a line: MST; Monolith NT.115; serial dilutions of MtlR variants mixed 1:1 with NT-647-labelled HPr; 20 mM Tris-HCl pH 7.5, 50 mM NaCl, 2 mM β-mercaptoethanol, 0.05% BSA, 0.05% Tween-20, 5% glycerol. The conditions noted are these: both partners purified.
Data set [6] concerns the target B2. The description is as above. The conditions noted are these: both partners purified.
Data set [7] concerns the target T2, His-MtlR(E140S). The description is as above. The note with it: both partners purified.

Usually stoichiometry N stands for a count of units in the complex or per binding partner. One may read the Kd as the constant that tells how readily two partners part at equilibrium. High values mean a looser complex, low ones a tighter complex.

For the molecule B1, the binding result (in data set [1]; with His-MtlR(L112W); in the data set with His-MtlR(E140S) [2]; with His-MtlR(A115W); with His-MtlR(E108S) [3]) was “binds” in each case.
As for B2, the “stoichiometry N” value in data set [4] is 2.
For the molecule B3, the Kd with His-MtlR(E108S) [5] was 1420 ± 80 nM; in data set [6], around 21 nM; in the data set with His-MtlR(E140S) [7], 1530 ± 110 nM.

The values are drawn from publication PMC6763467, “Structural insight into glucose repression of the mannitol operon” (Scientific Reports, 2019).
